Test results from the supplement of paper PMC6755084.

B1: F1*; the commonest letter at each place (parent)
chain: GAGACCGCAACTGAAAAGTTGTTATCACTTGTCGTAAGACACTTTGGATGGGTTGAAGTTCTGCACGTAGAAGCAAAAGGC

Variants of: B1
Assay: fraction ligated after 30 min (ligated reads / total reads); higher = more ligase activity
Settings: with F1*sub RNA substrate (template-directed ligation), 42 °C
Outline: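 Ribozyme variants were transcribed with T7 from PCR-amplified oligo-pool templates and gel-purified. Ligated and unligated bands, separated on gel, were reverse transcribed with barcoded primers and sequenced on a MiSeq, with core bases filtered at quality ≥20. Fraction ligated per variant was computed as ligated reads divided by total reads.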

Variant	fraction ligated
GAGACCGCAACTGAAAAGTTGTTATCACTTGTCCTACGACACTTTGGATGGGTTGAAGTTCTGCACGTAGAAGCAAAAGGC [G34C A37C]	0.806
GAGACCGCAACTGAAAAGTTGTTATCACTTGTCCTAGGACACTTTGGATGGGTTGAAGTTCTGCACGTAGAAGCAAAAGGC [G34C A37G]	0.845
GAGACCGCAACTGAAAAGTTGTTATCACTTGTCCTATGACACTTTGGATGGGTTGAAGTTCTGCACGTAGAAGCAAAAGGC [G34C A37T]	0.839
GAGACCGCAACTGAAAAGTTGTTATCACTTGTCCAAAGACACTTTGGATGGGTTGAAGTTCTGCACGTAGAAGCAAAAGGC [G34C T35A]	0.815
GAGACCGCAACTGAAAAGTTGTTATCACTTGTCCCAAGACACTTTGGATGGGTTGAAGTTCTGCACGTAGAAGCAAAAGGC [G34C T35C]	0.835
GAGACCGCAACTGAAAAGTTGTTATCACTTGTCCGAAGACACTTTGGATGGGTTGAAGTTCTGCACGTAGAAGCAAAAGGC [G34C T35G]	0.829
GAGACCGCAACTGAAAAGTTGTTATCACTTGTCCTCAGACACTTTGGATGGGTTGAAGTTCTGCACGTAGAAGCAAAAGGC [G34C A36C]	0.834
GAGACCGCAACTGAAAAGTTGTTATCACTTGTCCTGAGACACTTTGGATGGGTTGAAGTTCTGCACGTAGAAGCAAAAGGC [G34C A36G]	0.824
GAGACCGCAACTGAAAAGTTGTTATCACTTGTCCTTAGACACTTTGGATGGGTTGAAGTTCTGCACGTAGAAGCAAAAGGC [G34C A36T]	0.832
GAGACCGCAACTGAAAAGTTGTTATCACTTGTCCTAAGACACTTTCGATGGGTTGAAGTTCTGCACGTAGAAGCAAAAGGC [G34C G46C]	0.757
GAGACCGCAACTGAAAAGTTGTTATCACTTGTCCTAAGACACTTTAGATGGGTTGAAGTTCTGCACGTAGAAGCAAAAGGC [G34C G46A]	0.789
GAGACCGCAACTGAAAAGTTGTTATCACTTGTCCTAAGACACTTTTGATGGGTTGAAGTTCTGCACGTAGAAGCAAAAGGC [G34C G46T]	0.762
GAGACCGCAACTGAAAAGTTGTTATCACTTGTCCTAAGACACTTTGGTTGGGTTGAAGTTCTGCACGTAGAAGCAAAAGGC [G34C A48T]	0.781
GAGACCGCAACTGAAAAGTTGTTATCACTTGTCCTAAGACACTTTGGCTGGGTTGAAGTTCTGCACGTAGAAGCAAAAGGC [G34C A48C]	0.756
GAGACCGCAACTGAAAAGTTGTTATCACTTGTCCTAAGACACTTTGGGTGGGTTGAAGTTCTGCACGTAGAAGCAAAAGGC [G34C A48G]	0.753
GAGACCGCAACTGAAAAGTTGTTATCACTTGTCCTAAGACACTTTGGATGGGTTTAAGTTCTGCACGTAGAAGCAAAAGGC [G34C G55T]	0.809
GAGACCGCAACTGAAAAGTTGTTATCACTTGTCCTAAGACACTTTGGATGGGTTCAAGTTCTGCACGTAGAAGCAAAAGGC [G34C G55C]	0.768

Variant	fraction ligated
GAGACCGCAACTGAAAAGTTGTTATCACTTGTCCTAAGACACTTTGGATGGGTTAAAGTTCTGCACGTAGAAGCAAAAGGC [G34C G55A]	0.838
GAGACCGCAACTGAAAAGTTGTTATCACTTGTCATAAGACACTTTGGAAGGGTTGAAGTTCTGCACGTAGAAGCAAAAGGC [G34A T49A]	0.786
GAGACCGCAACTGAAAAGTTGTTATCACTTGTCATAAGACACTTTGGACGGGTTGAAGTTCTGCACGTAGAAGCAAAAGGC [G34A T49C]	0.737
GAGACCGCAACTGAAAAGTTGTTATCACTTGTCATAAGACACTTTGGAGGGGTTGAAGTTCTGCACGTAGAAGCAAAAGGC [G34A T49G]	0.819
GAGACCGCAACTGAAAAGTTGTTATCACTTGTCTTCAGACACTTTGGATGGGTTGAAGTTCTGCACGTAGAAGCAAAAGGC [G34T A36C]	0.843
GAGACCGCAACTGAAAAGTTGTTATCACTTGTCTTGAGACACTTTGGATGGGTTGAAGTTCTGCACGTAGAAGCAAAAGGC [G34T A36G]	0.834
GAGACCGCAACTGAAAAGTTGTTATCACTTGTCTTTAGACACTTTGGATGGGTTGAAGTTCTGCACGTAGAAGCAAAAGGC [G34T A36T]	0.827
GAGACCGCAACTGAAAAGTTGTTATCACTTGTCCTAAGACACTTCGGATGGGTTGAAGTTCTGCACGTAGAAGCAAAAGGC [G34C T45C]	0.733
GAGACCGCAACTGAAAAGTTGTTATCACTTGTCCTAAGACACTTGGGATGGGTTGAAGTTCTGCACGTAGAAGCAAAAGGC [G34C T45G]	0.0478
GAGACCGCAACTGAAAAGTTGTTATCACTTGTCCTAAGACACTTAGGATGGGTTGAAGTTCTGCACGTAGAAGCAAAAGGC [G34C T45A]	0.0783
GAGACCGCAACTGAAAAGTTGTTATCACTTGTCCTAAGACACTTTGGATGGGTTGTAGTTCTGCACGTAGAAGCAAAAGGC [G34C A56T]	0.812
GAGACCGCAACTGAAAAGTTGTTATCACTTGTCCTAAGACACTTTGGATGGGTTGGAGTTCTGCACGTAGAAGCAAAAGGC [G34C A56G]	0.794
GAGACCGCAACTGAAAAGTTGTTATCACTTGTCCTAAGACACTTTGGATGGGTTGCAGTTCTGCACGTAGAAGCAAAAGGC [G34C A56C]	0.779
GAGACCGCAACTGAAAAGTTGTTATCACTTGTCTTACGACACTTTGGATGGGTTGAAGTTCTGCACGTAGAAGCAAAAGGC [G34T A37C]	0.844
GAGACCGCAACTGAAAAGTTGTTATCACTTGTCCTAAGAGACTTTGGATGGGTTGAAGTTCTGCACGTAGAAGCAAAAGGC [G34C C40G]	0.818
GAGACCGCAACTGAAAAGTTGTTATCACTTGTCCTAAGAAACTTTGGATGGGTTGAAGTTCTGCACGTAGAAGCAAAAGGC [G34C C40A]	0.805
GAGACCGCAACTGAAAAGTTGTTATCACTTGTCCTAAGATACTTTGGATGGGTTGAAGTTCTGCACGTAGAAGCAAAAGGC [G34C C40T]	0.803
